The source of these data is patent US20070003556A1 (published 2007).

Test [1] addresses T1, CD22 (UniProt P20273 20-847, limits assumed).
T1 construct: whole, on cells; The assays used B-lymphoma cell lines Raji and Daudi, 'which are known to strongly express CD22'; also called CD22 on Raji cells; CD22 on Daudi cells
T1 sequence (looked up): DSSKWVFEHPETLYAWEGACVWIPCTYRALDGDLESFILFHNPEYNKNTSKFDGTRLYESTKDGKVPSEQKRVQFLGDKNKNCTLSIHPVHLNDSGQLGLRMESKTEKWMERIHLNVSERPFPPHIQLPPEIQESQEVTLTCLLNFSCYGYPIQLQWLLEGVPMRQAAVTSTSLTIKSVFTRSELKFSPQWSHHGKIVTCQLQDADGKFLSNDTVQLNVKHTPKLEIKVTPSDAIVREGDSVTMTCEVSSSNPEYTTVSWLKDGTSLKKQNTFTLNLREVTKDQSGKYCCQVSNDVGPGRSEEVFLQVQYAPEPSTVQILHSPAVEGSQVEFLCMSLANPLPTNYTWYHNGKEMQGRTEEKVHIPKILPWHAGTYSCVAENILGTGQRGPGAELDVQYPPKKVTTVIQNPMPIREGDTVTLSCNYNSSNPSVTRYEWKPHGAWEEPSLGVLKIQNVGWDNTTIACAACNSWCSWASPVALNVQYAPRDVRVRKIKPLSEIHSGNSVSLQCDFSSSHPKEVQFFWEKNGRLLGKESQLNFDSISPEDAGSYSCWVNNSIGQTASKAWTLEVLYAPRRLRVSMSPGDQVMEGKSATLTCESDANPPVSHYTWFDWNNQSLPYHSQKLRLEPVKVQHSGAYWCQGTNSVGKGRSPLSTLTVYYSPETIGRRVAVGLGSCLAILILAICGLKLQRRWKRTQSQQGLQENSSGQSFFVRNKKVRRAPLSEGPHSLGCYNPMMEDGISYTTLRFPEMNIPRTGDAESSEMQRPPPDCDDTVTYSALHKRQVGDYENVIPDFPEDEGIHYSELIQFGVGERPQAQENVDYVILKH
Put plainly: flow cytometry on Raji cells, diabody at 20 ug/mL, detected with anti-Flag M2 antibody and FITC-anti-mouse IgG. How it is done: (§1) Purified LL2 diabody and RFB4 diabody were added to cells of the B-lymphoma cell line, Raji, in PBS containing 2% FCS and 0.02% NaN₃ such that the final concentrations were 20 μg/mL and 8 μg/mL, respectively. After reacting on ice for one hour, anti-Flag M2 antibody was added to the mixture, and then reacted on ice for another one hour. The cells were washed and reacted with FITC-anti-mouse IgG on ice for 30 minutes. Diabody binding to the cell surface was measured by flow cytometry (EPICS ELITE, COULTER).

Test [2] addresses T1, CD22. As to the kind of experiment: flow cytometry on Raji cells, diabody at 8 ug/mL, detected with anti-Flag M2 antibody and FITC-anti-mouse IgG. The protocol: as §1
In general terms: A flow cytometer gives signals particle by particle.

B1: LL2 diabody (other)
chain: QVQLQESGAELSKPGASVKMSCKASGYTFTSYWLHWIKQRPGQGLEWIGYINPRNDYTEYNQNFKDKATLTADKSSSTAYMQLSSLTSEDSAVYYCARRDITTFYWGQGTTLTVSSGGGGSDIQLTQSPSSLAVSAGENVTMSCKSSQSVLYSANHKNYLAWYQQKPGQSPKLLIYWASTRESGVPDRFTGSGSGTDFTLTISRVQVEDLAIYYCHQYLSSWTFGGGTKLEIKDYKDDDDK
notes: Diabody: a non-covalent dimer of two identical VH-(5-mer linker)-VL-Flag fragments; Expressed in DG44 cells and purified on anti-Flag M2 agarose; also called CD22 diabody; LL2 DB
With B1, the binding result in the test with CD22 [1] was “binds”.

B2: RFB4 diabody (other)
chain: EVQLVESGGGLVKPGGSLKLSCAASGFAFSIYDMSWVRQTPEKRLEWVAYISSGGGTTYYPDTVKGRFTISRDNAKNTLYLQMSSLKSEDTAMYYCARHSGYGSSYGVLFAYWGQGTLVTVSAGGGGSDIQMTQTTSSLSASLGDRVTISCRASQDISNYLNWYQQKPDGTVKLLIYYTSILHSGVPSKFSGSGSGTDYSLTISNLEQEDFATYFCQQGNTLPWTFGGGTKLEIKDYKDDDDK
notes: Diabody: a non-covalent dimer of two identical VH-(5-mer linker)-VL-Flag fragments; Transiently expressed in COS7 cells and purified on anti-Flag M2 agarose; also called CD22 diabody; RFB4 DB
For the molecule B2, the binding result in the test with CD22 [2] is “binds”.
